In general, stoichiometry N refers to a count of units in the complex or per binding partner.

In PMC5482835 one finds stoichiometry N and percent of the total enzyme in the ~125 kDa band data, which are given here for three substances.

Experiment [1] concerns the target caveolin-1 (Chinese hamster (endogenous in CHO-K1)). Briefly: cross-linking; intact CHO-K1 cells, 0.5 mM membrane-permeable DSP, room temperature, 45 min, quenched with 50 mM glycine; SDS-PAGE and Western blot; cross-link reversed by beta-mercaptoethanol. Background: A western blot detects proteins with antibodies after separation by electrophoresis.
The target in experiment [2] is GPI-YFP, a fusion protein containing the total sequence of YFP fused to a glycosylphosphatidylinositol (GPI)-membrane attachment signal. Briefly: cross-linking; intact CHO-K1 cells, 2 mM membrane-impermeable BS3, 4 °C, 45 min, quenched with 50 mM glycine; SDS-PAGE and Western blot.
In experiment [3] the target is full-length human Neu3 tagged at the C-terminus with a c-Myc epitope (human). Briefly: non-reducing SDS-PAGE with Western blot; total homogenates of NEU3-transfected CHO-K1 cells separated by SDS-PAGE with or without 5% beta-mercaptoethanol; blotted with anti-Neu3 antibody.

On to caveolin-1 (natural protein), for which the stoichiometry N in experiment [1] stood at 2.
As for “GPI-YFP, a fusion protein containing the total sequence of YFP fused to a glycosylphosphatidylinositol (GPI)-membrane attachment signal”, in experiment [2], the stoichiometry N amounted to 2.
In experiment [3], “full-length human Neu3 tagged at the C-terminus with a c-Myc epitope (enzyme)” came in with a percent of the total enzyme in the ~125 kDa band of 25% and a stoichiometry N of 2.
